What is called Km is the concentration of substrate that gives half-maximal velocity. As a reminder, the Vmax is the top rate of the reaction or transport when substrate is in excess. The term kcat denotes the maximal rate divided by the concentration of active sites. A word on the kcat/Km: it is the turnover number divided by the Michaelis constant.

Data set [1] concerns CCCCCCCCCCCCCCCC(=O)Oc1ccc([N+](=O)[O-])cc1. As to the kind of experiment: p-nitrophenol release, Lineweaver-Burk. To be noted: Tris-HCl pH 9, 37 °C, substrate 4-PNN [sic], 4-NPP in materials, apparent Km. Format: biochemical, Rhizopus microsporus. The source says: (§1) p-nitrophenol release, Lineweaver-Burk on Lipr27RCL
Substrate in data set [2]: CCCCCCCCCCCCCCCC(=O)Oc1ccc([N+](=O)[O-])cc1
As to the kind of experiment: p-nitrophenol release, Lineweaver-Burk. Particulars: Tris-HCl pH 9, 37 °C, substrate 4-PNN [sic], 4-NPP in materials, apparent Km. Format: biochemical, Rhizopus microsporus.
Excerpt: as §1
The source holds these as a separate data set.

“Lipr27RCL (Rhizopus microsporus var. chinensis; D159T)”: in data set [1], the Michaelis constant (Km) was 380 ± 50 µM, the Vmax came to 709 µmol/min/mg, the kcat came out at 187 ± 16.3 s⁻¹ and the specificity constant (kcat/Km) is 491000 M⁻¹ s⁻¹.
In the case of “Lipr27RCL (Rhizopus microsporus var. chinensis; W158I)”, in data set [1], the Km was 450 ± 40 µM, the Vmax is 500 µmol/min/mg, the kcat amounted to 132 ± 19.4 s⁻¹ and the kcat/Km came out at 292000 M⁻¹ s⁻¹.
In the same order, the values of “Lipr27RCL (Rhizopus microsporus var. chinensis; K161T)” are 290 ± 60 µM, 714 µmol/min/mg, 188 ± 13.7 s⁻¹ and 648000 M⁻¹ s⁻¹.
In the same order, the values of “Lipr27RCL (Rhizopus microsporus var. chinensis; K157N)” are 290 ± 90 µM, 588 µmol/min/mg, 185 ± 18.5 s⁻¹ and 637000 M⁻¹ s⁻¹.

B1: Lipr27RCL (Rhizopus microsporus var. chinensis) (protein)
chain: DTETVGGMTLDLPENPPPIPATSTAPSSDSGEVVTATAAQIKELTNYAGVAATAYCRSVVPGTKWDCKQCLKYVPDGKLIKTFTSLLTDTNGFILRSDAQKTIYVTFRGTNSFRSAITDMVFTFTDYSPVKGAKVHAGFLSSYNQVVKDYFPVVQDQLTAYPDYKVIVTGHSLGGAQALLAGMDLYQREKRLSPKNLSIYTVGCPRVGNNAFAYYVDSTGIPFHRTVHKRDIVPHVPPQAFGYLHPGVESWIKEDPADVQICTSNIETKQCSNSIVPFTSIADHLTYFGINEGSCL
For the molecule B1, in data set [2], the Km came to 360 ± 60 µM, the Vmax was determined as 714 µmol/min/mg, the catalytic constant (kcat) turned out to be 188 ± 18.2 s⁻¹ and the kcat/Km was found to be 522000 M⁻¹ s⁻¹.

The values above are taken from paper PMC7063977, “Improving the Thermostability of Rhizopus chinensis Lipase Through Site-Directed Mutagenesis Based on B-Factor Analysis” (Frontiers in Microbiology, 2020).
